B1: Vesicle-associated membrane protein 7 (Homo sapiens), P51809 (parent)
chain: MAILFAVVARGTTILAKHAWCGGNFLEVTEQILAKIPSENNKLTYSHGNYLFHYICQDRIVYLCITDDDFERSRAFNFLNEIKKRFQTTYGSRAQTALPYAMNSEFSSVLAAQLKHHSENKGLDKVMETQAQVDELKGIMVRNIDLVAQRGERLELLIDKTENLVDSSVTFKTTSRNLARAMCMKNLKLTIIIIIVSIVFIYIIVSPLCGGFTWPSCVKK
partner: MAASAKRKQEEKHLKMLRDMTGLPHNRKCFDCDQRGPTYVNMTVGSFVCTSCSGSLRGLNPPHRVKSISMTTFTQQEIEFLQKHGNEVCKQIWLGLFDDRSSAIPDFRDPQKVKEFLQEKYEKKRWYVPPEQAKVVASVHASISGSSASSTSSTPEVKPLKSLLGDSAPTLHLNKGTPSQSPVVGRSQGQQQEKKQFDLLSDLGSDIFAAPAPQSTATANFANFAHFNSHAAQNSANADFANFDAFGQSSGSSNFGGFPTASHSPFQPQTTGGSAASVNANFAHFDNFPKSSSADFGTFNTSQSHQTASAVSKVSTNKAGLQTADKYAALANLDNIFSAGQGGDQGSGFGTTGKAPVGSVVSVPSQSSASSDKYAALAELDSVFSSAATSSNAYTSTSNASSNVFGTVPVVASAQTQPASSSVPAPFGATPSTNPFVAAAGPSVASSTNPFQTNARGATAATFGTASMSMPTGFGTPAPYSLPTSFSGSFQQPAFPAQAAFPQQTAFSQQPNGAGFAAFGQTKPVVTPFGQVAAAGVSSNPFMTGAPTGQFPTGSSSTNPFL
B2: Arf-GAP domain and FG repeat-containing protein 1 (Homo sapiens), P52594 (parent)
chain: B1 partner

Variants of: B1
Details: with agfg1_human AGFG1, P52594

Row | Variant | effect of a mutation on the interaction
1 | L43S;Y45S | decreasing interaction

Variants of: B1
Details: with agfg1_human AGFG1, P52594
Remark: another data set of the same source

Row | Variant | effect of a mutation on the interaction
2 | L43S;Y45S | decreasing interaction

Variants of: B2
Details: with vamp7_human VAMP7, P51809

Row | Variant | effect of a mutation on the interaction
3 | L171S;L173S | decreasing interaction
4 | L163S;L164S | decreasing interaction
5 | L160S;L163S | decreasing interaction

Variants of: B2
Details: with vamp7_human VAMP7, P51809
Remark: another data set of the same source

Row | Variant | effect of a mutation on the interaction
6 | L163S;L164S | decreasing interaction

Reference: IntAct's records for PubMed 18775314
